According to patent publication US20150344570A1 (published 2015):

Tests used:
[1] = target: T1, FcγRIIa R extracellular domain with C-terminal His tag (human, UniProt P12318 34-217); assay: SPR (Biacore), relative FcγRIIa R binding, GpH7-B3/GpL16-k0 = 100
T1 construct: extracellular domain; also called FcgRIIa R; 2aR; not shown: His tag at the C terminus
T1 sequence (looked up): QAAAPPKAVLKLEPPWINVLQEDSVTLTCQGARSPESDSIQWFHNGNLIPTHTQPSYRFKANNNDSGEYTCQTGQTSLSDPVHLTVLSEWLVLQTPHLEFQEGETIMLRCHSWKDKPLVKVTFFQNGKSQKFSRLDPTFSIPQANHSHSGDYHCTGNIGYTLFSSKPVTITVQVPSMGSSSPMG
Procedure: Analysis of interaction between objective antibody and the FcγR was carried out using Biacore T100 (GE Healthcare). HBS-EP+ (GE Healthcare) was used as the running buffer, and the measurement temperature was set to 25° C. Chips produced by immobilizing the antigen peptide by the amine coupling method to a Series S Sencor Chip CM5 (GE Healthcare), or alternatively, chips produced by allowing preliminarily biotinylated antigen peptides to interact with and immobilize onto a Series S Sensor Chip SA (certified) (GE Healthcare) were used. Antibodies of interest were captured onto an antigen peptide-immobilized chip, and allowed to interact to each FcγR diluted with running buffer. To regenerate and repeatedly use the chip, the antibodies captured on the chip were washed off by reacting 10 mM glycine-HCl, pH 1.5.

[2] = target: T1, FcγRIIa R extracellular domain with …; assay: SPR (Biacore), relative FcγRIIa R binding, GpH7-A5/GpH7-B3/GpL16-k0 = 100

| Ho/Con_2aR [1] | He/Con_2aR [2] | Binder |
| --- | --- | --- |
| 105 % of control |  | GpH7-B3 variant S337_20W/GpL16-k0 (antibody, human IgG1, kappa, homodimerized: alteration in both H chains; also called Ho Ab S337_20W) heavy: not shown light: DIVMTQSPLSLPVTPGEPASISCQASESLVHSNRNTYLHWYLQKPGQSPQLLIYKVSNRFSGVPDRFSGSGSGTDFTLKISRVEAEDVGVYYCSQNTHVPPTFGQGTKVEIERTVAAPSVFIFPPSDEQLKSGTASVVCLLNNFYPREAKVQWKVDNALQSGNSQESVTEQDSKDSTYSLSSTLTLSKADYEKHKVYACEVTHQGLSSPVTKSFNRGEC |
| 102 % of control |  | GpH7-B3 variant T335_02A/GpL16-k0 (antibody, human IgG1, kappa, homodimerized: alteration in both H chains; also called Ho Ab T335_02A) heavy: not shown light: DIVMTQSPLSLPVTPGEPASISCQASESLVHSNRNTYLHWYLQKPGQSPQLLIYKVSNRFSGVPDRFSGSGSGTDFTLKISRVEAEDVGVYYCSQNTHVPPTFGQGTKVEIERTVAAPSVFIFPPSDEQLKSGTASVVCLLNNFYPREAKVQWKVDNALQSGNSQESVTEQDSKDSTYSLSSTLTLSKADYEKHKVYACEVTHQGLSSPVTKSFNRGEC |
| 104 % of control |  | GpH7-B3 variant T335_05P/GpL16-k0 (antibody, human IgG1, kappa, homodimerized: alteration in both H chains; also called Ho Ab T335_05P) heavy: not shown light: DIVMTQSPLSLPVTPGEPASISCQASESLVHSNRNTYLHWYLQKPGQSPQLLIYKVSNRFSGVPDRFSGSGSGTDFTLKISRVEAEDVGVYYCSQNTHVPPTFGQGTKVEIERTVAAPSVFIFPPSDEQLKSGTASVVCLLNNFYPREAKVQWKVDNALQSGNSQESVTEQDSKDSTYSLSSTLTLSKADYEKHKVYACEVTHQGLSSPVTKSFNRGEC |

Second part, the binder before the results:

| Binder | Ho/Con_2aR [1] | He/Con_2aR [2] |
| --- | --- | --- |
| GpH7-B3 variant S337_10E/GpL16-k0 (antibody, human IgG1, kappa, homodimerized: alteration in both H chains; also called Ho Ab S337_10E) heavy: not shown light: DIVMTQSPLSLPVTPGEPASISCQASESLVHSNRNTYLHWYLQKPGQSPQLLIYKVSNRFSGVPDRFSGSGSGTDFTLKISRVEAEDVGVYYCSQNTHVPPTFGQGTKVEIERTVAAPSVFIFPPSDEQLKSGTASVVCLLNNFYPREAKVQWKVDNALQSGNSQESVTEQDSKDSTYSLSSTLTLSKADYEKHKVYACEVTHQGLSSPVTKSFNRGEC | 110 % of control |  |
| GpH7-A5/GpH7-B3 variant S337_02A/GpL16-k0 (antibody, human IgG1, kappa, heterodimerized: alteration in one H chain only; also called He Ab S337_02A) heavy 1: not shown heavy 2: not shown light: DIVMTQSPLSLPVTPGEPASISCQASESLVHSNRNTYLHWYLQKPGQSPQLLIYKVSNRFSGVPDRFSGSGSGTDFTLKISRVEAEDVGVYYCSQNTHVPPTFGQGTKVEIERTVAAPSVFIFPPSDEQLKSGTASVVCLLNNFYPREAKVQWKVDNALQSGNSQESVTEQDSKDSTYSLSSTLTLSKADYEKHKVYACEVTHQGLSSPVTKSFNRGEC |  | 105 % of control |
| GpH7-A5/GpH7-B3 variant A327_10E/GpL16-k0 (antibody, human IgG1, kappa, heterodimerized: alteration in one H chain only; also called He Ab A327_10E) heavy 1: not shown heavy 2: not shown light: DIVMTQSPLSLPVTPGEPASISCQASESLVHSNRNTYLHWYLQKPGQSPQLLIYKVSNRFSGVPDRFSGSGSGTDFTLKISRVEAEDVGVYYCSQNTHVPPTFGQGTKVEIERTVAAPSVFIFPPSDEQLKSGTASVVCLLNNFYPREAKVQWKVDNALQSGNSQESVTEQDSKDSTYSLSSTLTLSKADYEKHKVYACEVTHQGLSSPVTKSFNRGEC |  | 110 % of control |
| GpH7-A5/GpH7-B3 variant H268_01G/GpL16-k0 (antibody, human IgG1, kappa, heterodimerized: alteration in one H chain only; also called He Ab H268_01G) heavy 1: not shown heavy 2: not shown light: DIVMTQSPLSLPVTPGEPASISCQASESLVHSNRNTYLHWYLQKPGQSPQLLIYKVSNRFSGVPDRFSGSGSGTDFTLKISRVEAEDVGVYYCSQNTHVPPTFGQGTKVEIERTVAAPSVFIFPPSDEQLKSGTASVVCLLNNFYPREAKVQWKVDNALQSGNSQESVTEQDSKDSTYSLSSTLTLSKADYEKHKVYACEVTHQGLSSPVTKSFNRGEC |  | 124 % of control |
| GpH7-A5/GpH7-B3 variant A327_09D/GpL16-k0 (antibody, human IgG1, kappa, heterodimerized: alteration in one H chain only; also called He Ab A327_09D) heavy 1: not shown heavy 2: not shown light: DIVMTQSPLSLPVTPGEPASISCQASESLVHSNRNTYLHWYLQKPGQSPQLLIYKVSNRFSGVPDRFSGSGSGTDFTLKISRVEAEDVGVYYCSQNTHVPPTFGQGTKVEIERTVAAPSVFIFPPSDEQLKSGTASVVCLLNNFYPREAKVQWKVDNALQSGNSQESVTEQDSKDSTYSLSSTLTLSKADYEKHKVYACEVTHQGLSSPVTKSFNRGEC |  | 124 % of control |
| GpH7-A5/GpH7-B3 variant I332_06M/GpL16-k0 (antibody, human IgG1, kappa, heterodimerized: alteration in one H chain only; also called He Ab I332_06M) heavy 1: not shown heavy 2: not shown light: DIVMTQSPLSLPVTPGEPASISCQASESLVHSNRNTYLHWYLQKPGQSPQLLIYKVSNRFSGVPDRFSGSGSGTDFTLKISRVEAEDVGVYYCSQNTHVPPTFGQGTKVEIERTVAAPSVFIFPPSDEQLKSGTASVVCLLNNFYPREAKVQWKVDNALQSGNSQESVTEQDSKDSTYSLSSTLTLSKADYEKHKVYACEVTHQGLSSPVTKSFNRGEC |  | 109 % of control |
| GpH7-B3 variant S337_18N/GpL16-k0 (antibody, human IgG1, kappa, homodimerized: alteration in both H chains; also called Ho Ab S337_18N) heavy: not shown light: DIVMTQSPLSLPVTPGEPASISCQASESLVHSNRNTYLHWYLQKPGQSPQLLIYKVSNRFSGVPDRFSGSGSGTDFTLKISRVEAEDVGVYYCSQNTHVPPTFGQGTKVEIERTVAAPSVFIFPPSDEQLKSGTASVVCLLNNFYPREAKVQWKVDNALQSGNSQESVTEQDSKDSTYSLSSTLTLSKADYEKHKVYACEVTHQGLSSPVTKSFNRGEC | 103 % of control |  |
